According to patent US20240383984A1 (Genentech, published 2024):

T1: human FcRH5 protein fragment (soluble) (human, UniProt Q96RD9 16-851)
T1 construct: whole entry named; also called soluble human FcRH5; Human FcRH5 (BIACORE analyte)
T1 sequence: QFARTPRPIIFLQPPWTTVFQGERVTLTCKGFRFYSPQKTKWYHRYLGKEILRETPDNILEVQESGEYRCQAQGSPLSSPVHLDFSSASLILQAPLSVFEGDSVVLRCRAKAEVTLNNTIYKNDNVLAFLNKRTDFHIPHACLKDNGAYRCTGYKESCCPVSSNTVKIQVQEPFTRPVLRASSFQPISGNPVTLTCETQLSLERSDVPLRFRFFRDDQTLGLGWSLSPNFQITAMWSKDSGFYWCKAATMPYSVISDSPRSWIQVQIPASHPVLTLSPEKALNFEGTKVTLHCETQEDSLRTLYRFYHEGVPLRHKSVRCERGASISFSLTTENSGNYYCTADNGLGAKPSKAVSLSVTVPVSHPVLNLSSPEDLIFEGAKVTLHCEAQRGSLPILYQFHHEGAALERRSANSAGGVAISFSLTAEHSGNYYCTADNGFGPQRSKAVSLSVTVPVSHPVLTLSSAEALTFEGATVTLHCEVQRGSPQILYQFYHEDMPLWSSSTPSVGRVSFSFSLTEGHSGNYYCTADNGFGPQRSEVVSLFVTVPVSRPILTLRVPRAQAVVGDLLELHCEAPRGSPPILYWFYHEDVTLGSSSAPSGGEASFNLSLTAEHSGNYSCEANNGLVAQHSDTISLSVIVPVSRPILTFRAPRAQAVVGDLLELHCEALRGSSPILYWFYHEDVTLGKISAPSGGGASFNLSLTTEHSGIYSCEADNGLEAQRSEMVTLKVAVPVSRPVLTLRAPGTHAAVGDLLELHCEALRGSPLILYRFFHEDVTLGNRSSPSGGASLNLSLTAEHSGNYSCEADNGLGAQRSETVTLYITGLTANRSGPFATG

T2: cynomolgus FcRH5 protein fragment (soluble) (cynomolgus monkey)
T2 construct: whole entry named; also called Cyno FcRH5 (BIACORE analyte)
T2 chain: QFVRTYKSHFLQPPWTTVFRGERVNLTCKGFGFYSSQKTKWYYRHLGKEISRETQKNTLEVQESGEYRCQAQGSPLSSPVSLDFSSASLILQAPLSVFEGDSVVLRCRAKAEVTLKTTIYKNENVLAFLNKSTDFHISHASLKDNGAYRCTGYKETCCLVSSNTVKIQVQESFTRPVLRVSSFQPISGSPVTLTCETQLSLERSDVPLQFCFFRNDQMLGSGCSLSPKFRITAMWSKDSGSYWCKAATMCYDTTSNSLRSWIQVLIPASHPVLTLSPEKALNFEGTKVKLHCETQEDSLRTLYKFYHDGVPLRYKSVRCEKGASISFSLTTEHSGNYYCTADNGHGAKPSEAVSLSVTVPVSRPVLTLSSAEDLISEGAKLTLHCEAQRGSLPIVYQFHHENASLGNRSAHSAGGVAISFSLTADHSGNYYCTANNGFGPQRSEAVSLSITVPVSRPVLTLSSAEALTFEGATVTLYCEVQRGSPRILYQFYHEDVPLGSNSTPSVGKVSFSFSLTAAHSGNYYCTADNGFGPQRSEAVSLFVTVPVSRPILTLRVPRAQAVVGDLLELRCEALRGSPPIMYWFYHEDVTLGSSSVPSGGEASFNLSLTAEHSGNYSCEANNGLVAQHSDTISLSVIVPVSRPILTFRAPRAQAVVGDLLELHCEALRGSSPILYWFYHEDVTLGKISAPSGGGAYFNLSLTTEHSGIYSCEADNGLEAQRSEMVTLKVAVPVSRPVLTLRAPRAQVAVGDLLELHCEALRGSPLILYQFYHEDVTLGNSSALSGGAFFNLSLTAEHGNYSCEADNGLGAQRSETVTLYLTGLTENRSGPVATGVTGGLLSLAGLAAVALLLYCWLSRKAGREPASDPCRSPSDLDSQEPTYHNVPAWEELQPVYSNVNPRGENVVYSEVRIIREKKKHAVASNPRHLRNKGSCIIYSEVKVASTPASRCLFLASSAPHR


How the values were obtained:
[1] = target: T1, human FcRH5 protein fragment (soluble); experiment: SPR (BIACORE), TDB captured as ligand, Hu FcRH5 as analyte, 25 °C, 1:1 binding model
[2] = target: T1, human FcRH5 protein fragment (soluble); experiment: SPR (BIACORE), hIgG capture format, 1:1 binding model, monovalent affinity; same numbers as FIG. 10B, Hu FcRH5 panel
Procedure: (§1) Kinetic characterization experiments were carried out (see Table 8). In these experiments, binding of soluble FcRH5 protein fragment to purified antibodies in human TDB antibody format was analyzed at six different non-zero concentrations (a 1:3 dilution series, one concentration injected twice as a replicate). Flow rate was set at 40 μl/min and association and dissociation monitored for 600 s.

[3] = target: T2, cynomolgus FcRH5 protein fragment …; experiment: BIACORE, hIgG capture, 1:1 model, monovalent
Procedure: (§2) Briefly, a human IgG capture surface was generated on a Series S CM5 chip using amine coupling and the human IgG capture kit (GE Life Sciences, Piscataway, NJ). Test antibodies were then captured on flow cells 2, 3, or 4, with flow cell 1 used as a reference. An FcRH5 protein fragment was used as the analyte, with a flow rate of […]. Between injections the capture surface was regenerated by a 30-second injection of 3M magnesium chloride or 10 mM glycine, pH 1.5. Interactions were assessed at 25° C. in 10 mM HEPES pH7.4, 150 mM NaCl, and 0.05% Tween 20 (HBSP). Reference data from the reference flow cell and from injection of buffer alone were subtracted prior to kinetic analysis. Kinetic information was calculated by fitting data to a 1:1 binding model. Reference subtraction and data fitting were performed using BIAevaluation software (GE Life Sciences, Piscataway, NJ).
as §1

[4] = target: T1, human FcRH5 protein fragment (soluble); experiment: BIACORE, hIgG capture, 1:1 model, monovalent
Procedure: as §2, §1

Kd [1] [nM]	koff [1] [s⁻¹]	kon [1] [M⁻¹ s⁻¹]	Kd [2] [nM]	koff [2] [s⁻¹]	kon [2] [M⁻¹ s⁻¹]	Kd [3] [nM]	Kd [4] [nM]	Binder
2.41	0.00117	484000	–	–	–	–	–	hu1G7.v1.4/38E4.v1 TDB (bispecific antibody, V domains shown, knob-into-hole TDB; also called 1G7.v1.4 TDB; 1G7.v1.4 (TDB format)) VH 1: EVQLVESGPGLVKPSETLSLTCTVSGFSLTRFGVHWVRQPPGKGLEWLGVIWRGGSTDYNAAFMSRLTISKDNSKNQVSLKLSSVTAADTAVYYCSNHYYGSSDYALDNWGQGTLVTVSS VL 1: DIQMTQSPSSLSASVGDRVTITCKASQDVRNLVVWFQQKPGKAPKLLIYSGSYRYSGVPSRFSGSGSGTDFTLTISSLQPEDFATYYCQQHYSPPYTFGQGTKVEIK VH 2: EVQLVQSGAEVKKPGASVKVSCKASGFTFTSYYIHWVRQAPGQGLEWIGWIYPENDNTKYNEKFKDRVTITADTSTSTAYLELSSLRSEDTAVYYCARDGYSRYYFDYWGQGTLVTVSS VL 2: DIVMTQSPDSLAVSLGERATINCKSSQSLLNSRTRKNYLAWYQQKPGQSPKLLIYWTSTRKSGVPDRFSGSGSGTDFTLTISSLQAEDVAVYYCKQSFILRTFGQGTKVEIK
–	–	–	2.35	0.00104	441000	6.76	2.35	1G7.v85/38E4.v1 TDB (bispecific antibody, V domains shown, knob-into-hole TDB; also called 1G7.v85 TDB; 1G7.v85 (TDB format)) VH 1: EVQLVESGPGLVKPSETLSLTCTVSGFSLTRFGVHWVRQPPGKGLEWLGVIWRGGSTDYNAAFVSRLTISKDNSKNQVSLKLSSVTAADTAVYYCSNHYYGSSDYALDNWGQGTLVTVSS VL 1: DIQMTQSPSSLSASVGDRVTITCKASQDVRNLVVWFQQKPGKAPKLLIYSGSYRYSGVPSRFSGSGSGTDFTLTISSLQPEDFATYYCQQHYSPPYTFGQGTKVEIK VH 2: EVQLVQSGAEVKKPGASVKVSCKASGFTFTSYYIHWVRQAPGQGLEWIGWIYPENDNTKYNEKFKDRVTITADTSTSTAYLELSSLRSEDTAVYYCARDGYSRYYFDYWGQGTLVTVSS VL 2: DIVMTQSPDSLAVSLGERATINCKSSQSLLNSRTRKNYLAWYQQKPGQSPKLLIYWTSTRKSGVPDRFSGSGSGTDFTLTISSLQAEDVAVYYCKQSFILRTFGQGTKVEIK
